Test results reported in patent US12297207B2, “Maytansinoid derivatives, conjugates thereof, and methods of use” (priority 2015, dated 2025).
Where two headings read alike, the source gives them in different places.

Target: T1, human PRLR extracellular domain (hPRLR-MMH) (Homo sapiens, UniProt P16471)
T1 construct: human PRLR extracellular domain expressed with a C-terminal myc-myc-hexahistidine tag; myc-myc-hexahistidine (MMH) (C); made in house
T1 sequence (P16471 25-234 limits assumed): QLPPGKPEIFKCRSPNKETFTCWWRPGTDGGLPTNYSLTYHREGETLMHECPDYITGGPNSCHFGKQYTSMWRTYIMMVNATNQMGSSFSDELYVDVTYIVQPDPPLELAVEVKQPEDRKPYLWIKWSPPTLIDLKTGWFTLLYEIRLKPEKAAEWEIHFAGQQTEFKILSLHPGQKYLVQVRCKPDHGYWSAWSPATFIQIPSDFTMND
Experiment: Surface plasmon resonance (Biacore 3000) binding kinetics
Details: 25° C.
Procedure: Equilibrium dissociation constants (KD values) for human PRLR binding to purified anti-PRLR antibodies that were either unmodified H1H6958N2, PRLR-Q, and PRLR-Q-63 were determined using a real-time surface plasmon resonance biosensor using a Biacore 3000 instrument. The Biacore sensor surface was first derivatized by amine coupling with a monoclonal mouse anti-human Fc antibody (GE, #BR-1008-39) to capture anti-PRLR monoclonal antibodies. All binding studies were performed in 0.01M HEPES pH 7.4, 0.15M NaCl, 3 mM EDTA, and 0.05% v/v Surfactant Tween-20 (HBS-ET running buffer) at 25° C. and 37° C. Different concentrations of human PRLR extracellular domain expressed with a C-terminal myc-myc-hexahistidine tag (hPRLR-MMH; SEQ ID NO: 401 as described in patent application WO 2015026907 A1), in HBS-ET running buffer ([…]) were injected over the anti-PRLR antibody captured surface for 4 minutes at a flow rate of 50 μL/minute and their dissociation in HBS-ET running buffer was monitored for 8 minutes. Kinetic association rate constant (ka) and dissociation rate constant (kd) were determined by fitting the real-time sensorgrams to a 1:1 binding model using Scrubber 2.0c curve fitting software. Binding dissociation equilibrium constants (KD) and dissociative half-lives (t½) were calculated from the kinetic rate constants as: […]

B1: H1H6958N2 (antibody, V domains shown)
VH: QVQLVESGGGVVQPGRSLRLSCGASGFTFRNYGMQWVRQGPGKGLEWVTLISFDGNDKYYADSVKGRFTISRDNSKNTLFLQMNSLRTEDTAVYYCARGGDFDYWGQGTLVTVSS
VL: DIQMTQSPSSLSASVGDRVTITCRASQDIRKDLGWYQQKPGKAPKRLIYAASSLHSGVPSRFSGSGSGTEFTLTISSLQPEDFATYYCLQHNSYPMYTFGQGTKLEIK
  ka: 417000 M⁻¹ s⁻¹
  kd: 0.000454 s⁻¹
Antibody captured on anti-human Fc surface
  100 nM hPRLR-MMH Bound (RU): 38 RU
Calculated from kinetic rate constants, read-out: KD
  Kd: 1.09 nM
read-out: KD value
  Kd: 1.09 nM
